Measured values: US20120058906A1 (published 2012)
Blank lines part the entries; values can stand above or below the binder they belong to.

Assays:
[1] = target: T1, rHuman ErbB2/Fc Chimera, CF (R&D Systems Cat#1129-ER) (human, UniProt P04626 23-652); assay: ECL (MSD multi-spot) titration, Fab at 360 nM; blank spot 462
T1 construct: Bought protein; also called HER2/neu; human epidermal growth factor 2 receptor; not shown: Fc of the bought chimera

[2] = target: T2, rHuman HGF R/c-MET/Fc Chimera, CF (R&D Systems Cat#358-MT/CF) (human, UniProt P08581 25-932); assay: as above
T2 construct: Bought protein; also called HGF R/Fc; hepatocyte growth factor receptor; not shown: Fc of the bought chimera

[3] = target: T3, rHuman IGF-1 sR, CF (R&D Systems Cat#391-GR) (human, UniProt P08069 31-932); assay: as above
T3 construct: Bought soluble receptor; also called insulin-like growth factor-1 soluble receptor; IGF-R1

[4] = target: T4, rHuman CD44/Fc Chimera, CF (R&D Systems Cat#3660-CD) (human, UniProt P16070 21-220); assay: as above
T4 construct: Bought protein; not shown: Fc of the bought chimera

[5] = target: T5, rHuman Erythropoietin R/Fc Chimera, CF (R&D Systems Cat#963-ER) (human, UniProt P19235 25-250); assay: as above
T5 construct: Bought protein; also called EPO R/Fc; EPOR; not shown: Fc of the bought chimera
T5 sequence: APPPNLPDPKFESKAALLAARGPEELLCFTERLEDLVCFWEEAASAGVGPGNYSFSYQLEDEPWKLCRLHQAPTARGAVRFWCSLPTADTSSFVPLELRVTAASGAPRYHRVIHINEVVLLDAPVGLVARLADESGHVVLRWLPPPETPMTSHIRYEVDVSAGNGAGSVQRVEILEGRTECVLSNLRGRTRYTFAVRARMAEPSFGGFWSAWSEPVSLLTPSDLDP

[6] = target: T6, rHuman P-Cadherin/Fc Chimera, CF (R&D Systems Cat#861-PC) (human, UniProt P22223 108-654); assay: as above
T6 construct: Bought protein; not shown: Fc of the bought chimera

[7] = target: T1, rHuman ErbB2/Fc Chimera, CF (R&D …); assay: ECL (MSD multi-spot) titration, Fab at 36 nM; blank spot 413
[8] = target: T2, rHuman HGF R/c-MET/Fc Chimera, CF (R&D …); assay: as above
[9] = target: T3, rHuman IGF-1 sR, CF (R&D Systems …); assay: as above
[10] = target: T4, rHuman CD44/Fc Chimera, CF (R&D Systems …); assay: as above
[11] = target: T5, rHuman Erythropoietin R/Fc Chimera, CF …; assay: as above
[12] = target: T6, rHuman P-Cadherin/Fc Chimera, CF (R&D …); assay: as above
[13] = target: T7, rHuman EGF R/Fc Chimera, CF (R&D Systems Cat#344-ER) (human, UniProt P00533 25-645); assay: ECL (MSD multi-spot) titration, Fab at 0.25 uM; blank spot 6344
T7 construct: Bought protein; also called epidermal growth factor receptor; not shown: Fc of the bought chimera

[14] = target: T8, Recombinant Human DLL4 (R&D Systems Cat#1506-D4/CF) (human, UniProt Q9NR61 27-524); assay: as above
T8 construct: Bought protein; also called delta-like protein 4

[15] = target: T3, rHuman IGF-1 sR, CF (R&D Systems …); assay: as above
[16] = target: T5, rHuman Erythropoietin R/Fc Chimera, CF …; assay: as above
[17] = target: T6, rHuman P-Cadherin/Fc Chimera, CF (R&D …); assay: as above
[18] = target: T7, rHuman EGF R/Fc Chimera, CF (R&D …); assay: ECL (MSD multi-spot) titration, Fab at 0.0625 uM; blank spot 1738
[19] = target: T8, Recombinant Human DLL4 (R&D Systems …); assay: as above
[20] = target: T3, rHuman IGF-1 sR, CF (R&D Systems …); assay: as above
[21] = target: T5, rHuman Erythropoietin R/Fc Chimera, CF …; assay: as above
[22] = target: T6, rHuman P-Cadherin/Fc Chimera, CF (R&D …); assay: as above
[23] = target: T7, rHuman EGF R/Fc Chimera, CF (R&D …); assay: ECL (MSD multi-spot) titration, Fab at 0.00391 uM; blank spot 576
[24] = target: T8, Recombinant Human DLL4 (R&D Systems …); assay: as above
[25] = target: T3, rHuman IGF-1 sR, CF (R&D Systems …); assay: as above
[26] = target: T5, rHuman Erythropoietin R/Fc Chimera, CF …; assay: as above
[27] = target: T6, rHuman P-Cadherin/Fc Chimera, CF (R&D …); assay: as above
[28] = target: T7, rHuman EGF R/Fc Chimera, CF (R&D …); assay: ECL (MSD multi-spot) titration, Fab at 0.01563 uM; blank spot 906
[29] = target: T8, Recombinant Human DLL4 (R&D Systems …); assay: as above
[30] = target: T3, rHuman IGF-1 sR, CF (R&D Systems …); assay: as above
[31] = target: T5, rHuman Erythropoietin R/Fc Chimera, CF …; assay: as above
[32] = target: T6, rHuman P-Cadherin/Fc Chimera, CF (R&D …); assay: as above
[33] = target: T9, rHuman P-Cadherin/Fc Chimera, CF (R&D Systems Cat#861-PC) (human, UniProt P22223 108-654); assay: MSD ECL multi-spot assay, antigen spotted on plate, Fab 0.93 uM; blank spot 859
T9 construct: Bought protein; also called CDH3; Fc part of the bought chimera not given

[34] = target: T10, rHuman IGF-1 sR (IGF-1 sR), CF (R&D Systems Cat#391-GR) (human, UniProt P08069 31-932); assay: as above
T10 construct: Bought soluble receptor; also called insulin-like growth factor-1 soluble receptor; IGF-R1

[35] = target: T11, rHuman CD44/Fc Chimera, CF (R&D Systems Cat#3660-CD) (human, UniProt P16070 21-220); assay: as above
T11 construct: Bought protein; Fc part of the bought chimera not given

[36] = target: T12, Recombinant Human DLL4 (R&D Systems Cat#1506-D4/CF) (human, UniProt Q9NR61 27-524); assay: as above
T12 construct: Bought protein; also called delta-like protein 4; rHuman DLL4

[37] = target: T13, rHuman Erythropoietin R/Fc Chimera, CF (R&D Systems Cat#963-ER) (human, UniProt P19235 25-250); assay: as above
T13 construct: Bought protein; also called EPOR; EPO R/Fc; Fc part of the bought chimera not given
T13 sequence: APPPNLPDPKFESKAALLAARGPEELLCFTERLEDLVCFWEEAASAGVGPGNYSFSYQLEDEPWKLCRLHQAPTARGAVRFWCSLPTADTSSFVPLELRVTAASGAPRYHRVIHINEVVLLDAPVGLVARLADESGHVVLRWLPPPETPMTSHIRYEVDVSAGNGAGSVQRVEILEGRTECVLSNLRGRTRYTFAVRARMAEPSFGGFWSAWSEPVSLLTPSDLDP

[38] = target: T14, rHuman Notch-1/Fc Chimera, CF (R&D Systems Cat#3647-TK) (human, UniProt P46531 19-526); assay: as above
T14 construct: Bought protein; Fc part of the bought chimera not given

[39] = target: T15, rHuman ErbB2/Fc Chimera, CF (R&D Systems Cat#1129-ER) (human, UniProt P04626 23-652); assay: as above
T15 construct: Bought protein; also called HER2/neu; human epidermal growth factor 2 receptor; Fc part of the bought chimera not given
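Further: blank spot per well as comparator with Hit at signal to blank ratio of 4 or more.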

ECL signal [1]: 647 | ECL signal [2]: 581 | ECL signal [3]: 535 | ECL signal [4]: 740 | ECL signal [5]: 4720 | ECL signal [6]: 636 | ECL signal [7]: 600 | ECL signal [8]: 613 | ECL signal [9]: 486 | ECL signal [10]: 679 | ECL signal [11]: 2980 | ECL signal [12]: 693
B1: Fab VH4-28_IGHD7-27*01_IGHJ1*01 & L2_IGKJ1*01 (Fab, V domains shown)
VH: QVQLQESGPGLVKPSDTLSLTCAVSGYSISSSNWWGWIRQPPGKGLEWIGYIYYSGSTYYNPSLKSRVTMSVDTSKNQFSLKLSSVTAVDTAVYYCARTNWGAEYFQHWGQGTLVTVSS
VL: not shown
notes: also called Fab No. 1

ECL signal [13]: 117000 | ECL signal [14]: 27700 | ECL signal [15]: 11000 | ECL signal [16]: 49200 | ECL signal [17]: 25500 | ECL signal [18]: 94800 | ECL signal [19]: 8050 | ECL signal [20]: 3150 | ECL signal [21]: 21100 | ECL signal [22]: 7740 | ECL signal [23]: 35900 | ECL signal [24]: 1550 | ECL signal [25]: 822 | ECL signal [26]: 5020 | ECL signal [27]: 1960 | ECL signal [28]: 70800 | ECL signal [29]: 4020 | ECL signal [30]: 1740 | ECL signal [31]: 11300 | ECL signal [32]: 4940
B2: Fab VH1-46_IGHD2-15*01_IGHJ2*01 & L2_IGKJ1*01 (Fab, V domains shown)
VH: QVQLVQSGAEVKKPGASVKVSCKASGYTFTSYYMHWVRQAPGQGLEWMGIINPSGGSTSYAQKFQGRVTMTRDTSTSTVYMELSSLRSEDTAVYYCAREGYCSGGSCYSYWYFDLWGRGTLVTVSS
VL: not shown
notes: also called Fab No. 6

ECL signal [33]: 2420 | ECL signal [34]: 1790 | ECL signal [35]: 1450 | ECL signal [36]: 9630 | ECL signal [37]: 4240 | ECL signal [38]: 1920 | ECL signal [39]: 1610
B3: Fab VH1-46_IGHD6-13*01_IGHJ4*01 & O1_IGKJ1*01 (Fab, V domains shown)
VH: QVQLVQSGAEVKKPGASVKVSCKASGYTFTSYYMHWVRQAPGQGLEWMGIINPSGGSTSYAQKFQGRVTMTRDTSTSTVYMELSSLRSEDTAVYYCAREGYSSSWYDYFDYWGQGTLVTVSS
VL: DIVMTQTPLSLPVTPGEPASISCRSSQSLLDSDDGNTYLDWYLQKPGQSPQLLIYTLSYRASGVPDRFSGSGSGTDFTLKISRVEAEDVGVYYCMQRIEFPSWTFGQGTKVEIK
notes: Fab from E. coli; VH joined to the CH1 (Flag and His tags) of Plasmid A, VL to the kappa CL of Plasmid C
